Among the data in patent US20200317768A1 (published 2020) are Kd values, retold here.

This assay deals with T1, cynomolgus monkey FcγRIIa3 extracellular domain, His-tagged (cynomolgus monkey).
T1 construct: also called cyno FcγRIIa3; cynoFcgRIIa3
T1 chain: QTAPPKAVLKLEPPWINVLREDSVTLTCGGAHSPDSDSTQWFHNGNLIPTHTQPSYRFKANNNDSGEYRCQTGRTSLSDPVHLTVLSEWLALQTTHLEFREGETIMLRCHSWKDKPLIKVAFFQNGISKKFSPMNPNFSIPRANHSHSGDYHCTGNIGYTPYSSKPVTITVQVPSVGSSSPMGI
Briefly: SPR, antibody captured, FcgR analyte. On the technique in general: Surface plasmon resonance follows binding to a sensor surface in real time, without labels.

B1: MS_M103205H795-SG1/M103202L889-SK1 (antibody, human IgG1, kappa)
heavy: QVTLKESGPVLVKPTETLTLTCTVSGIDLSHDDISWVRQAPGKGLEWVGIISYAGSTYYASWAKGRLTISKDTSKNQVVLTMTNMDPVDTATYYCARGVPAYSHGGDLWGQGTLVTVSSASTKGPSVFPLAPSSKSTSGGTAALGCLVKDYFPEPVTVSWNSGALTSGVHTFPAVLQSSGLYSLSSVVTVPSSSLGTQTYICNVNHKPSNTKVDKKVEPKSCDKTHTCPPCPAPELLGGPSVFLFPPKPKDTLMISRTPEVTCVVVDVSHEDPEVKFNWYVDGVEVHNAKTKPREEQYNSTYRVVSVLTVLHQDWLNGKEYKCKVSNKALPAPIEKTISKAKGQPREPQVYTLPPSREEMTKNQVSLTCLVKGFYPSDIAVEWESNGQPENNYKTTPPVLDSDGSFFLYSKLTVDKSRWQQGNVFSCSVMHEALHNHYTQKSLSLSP
light: DIVMTQSPATLSLSPGERATLSCTSSQSVYHANWLSWFQQKPGQPPKLLIYWASTLAYGVPSRFSGSGSGTDFTLTISSLQPEDAATYYCAGGYGGGRYAFGQGTKVEIKRTVAAPSVFIFPPSDEQLKSGTASVVCLLNNFYPREAKVQWKVDNALQSGNSQESVTEQDSKDSTYSLSSTLTLSKADYEKHKVYACEVTHQGLSSPVTKSFNRGEC
notes: Parent antibody of the Fc variants; heavy chain constant region SG1, light chain M103202L889-SK1; also called MS1032LO06-SG1
A word on the Kd: it is the constant that tells how readily two partners part at equilibrium. B1 gave a Kd of 17 µM.

B2: M103205H795-MY006/M103202L889-SK1 (antibody, human IgG1, kappa)
heavy: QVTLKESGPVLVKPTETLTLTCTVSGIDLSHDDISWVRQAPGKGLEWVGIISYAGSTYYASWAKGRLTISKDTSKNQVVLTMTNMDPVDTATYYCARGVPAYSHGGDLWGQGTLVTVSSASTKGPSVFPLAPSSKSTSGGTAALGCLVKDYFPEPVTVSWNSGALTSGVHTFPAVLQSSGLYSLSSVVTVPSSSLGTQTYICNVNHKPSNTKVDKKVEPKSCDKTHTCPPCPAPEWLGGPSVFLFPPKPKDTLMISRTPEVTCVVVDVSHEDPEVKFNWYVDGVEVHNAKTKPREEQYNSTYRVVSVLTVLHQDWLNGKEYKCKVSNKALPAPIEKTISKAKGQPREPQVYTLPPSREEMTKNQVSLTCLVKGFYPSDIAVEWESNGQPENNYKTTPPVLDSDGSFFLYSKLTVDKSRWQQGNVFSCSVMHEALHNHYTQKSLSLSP
light: DIVMTQSPATLSLSPGERATLSCTSSQSVYHANWLSWFQQKPGQPPKLLIYWASTLAYGVPSRFSGSGSGTDFTLTISSLQPEDAATYYCAGGYGGGRYAFGQGTKVEIKRTVAAPSVFIFPPSDEQLKSGTASVVCLLNNFYPREAKVQWKVDNALQSGNSQESVTEQDSKDSTYSLSSTLTLSKADYEKHKVYACEVTHQGLSSPVTKSFNRGEC
notes: Substitution put into M103205H795-SG1
For B2, the Kd amounted to 3.6 µM.

B3: M103205H795-MY037/M103202L889-SK1 (antibody, human IgG1, kappa)
heavy: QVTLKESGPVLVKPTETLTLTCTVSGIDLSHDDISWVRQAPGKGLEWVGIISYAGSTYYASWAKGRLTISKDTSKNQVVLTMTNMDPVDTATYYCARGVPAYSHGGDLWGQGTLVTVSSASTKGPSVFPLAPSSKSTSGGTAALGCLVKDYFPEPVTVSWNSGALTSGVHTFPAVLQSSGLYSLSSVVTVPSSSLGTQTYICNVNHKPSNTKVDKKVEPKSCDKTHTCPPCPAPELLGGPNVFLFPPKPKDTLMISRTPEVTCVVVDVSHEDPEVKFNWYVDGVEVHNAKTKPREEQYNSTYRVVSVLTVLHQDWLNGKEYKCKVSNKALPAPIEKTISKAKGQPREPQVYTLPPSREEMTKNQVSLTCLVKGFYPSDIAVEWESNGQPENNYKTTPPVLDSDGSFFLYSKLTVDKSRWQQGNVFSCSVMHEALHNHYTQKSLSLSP
light: DIVMTQSPATLSLSPGERATLSCTSSQSVYHANWLSWFQQKPGQPPKLLIYWASTLAYGVPSRFSGSGSGTDFTLTISSLQPEDAATYYCAGGYGGGRYAFGQGTKVEIKRTVAAPSVFIFPPSDEQLKSGTASVVCLLNNFYPREAKVQWKVDNALQSGNSQESVTEQDSKDSTYSLSSTLTLSKADYEKHKVYACEVTHQGLSSPVTKSFNRGEC
notes: as for B2
B3: the dissociation constant Kd was determined as 9.6 µM.

B4: M103205H795-MY008/M103202L889-SK1 (antibody, human IgG1, kappa)
heavy: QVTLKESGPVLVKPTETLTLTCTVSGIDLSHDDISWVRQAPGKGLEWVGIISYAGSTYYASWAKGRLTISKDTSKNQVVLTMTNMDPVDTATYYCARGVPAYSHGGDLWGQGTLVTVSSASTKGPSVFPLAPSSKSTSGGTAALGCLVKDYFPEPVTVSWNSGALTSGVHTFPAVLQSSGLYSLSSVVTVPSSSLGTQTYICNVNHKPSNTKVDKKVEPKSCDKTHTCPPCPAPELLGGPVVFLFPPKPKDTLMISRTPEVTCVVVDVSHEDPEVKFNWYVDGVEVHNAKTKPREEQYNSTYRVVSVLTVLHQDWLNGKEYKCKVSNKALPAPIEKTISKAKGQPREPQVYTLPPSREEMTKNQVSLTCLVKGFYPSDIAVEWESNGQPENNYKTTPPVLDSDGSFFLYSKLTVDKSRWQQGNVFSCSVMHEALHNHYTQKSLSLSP
light: DIVMTQSPATLSLSPGERATLSCTSSQSVYHANWLSWFQQKPGQPPKLLIYWASTLAYGVPSRFSGSGSGTDFTLTISSLQPEDAATYYCAGGYGGGRYAFGQGTKVEIKRTVAAPSVFIFPPSDEQLKSGTASVVCLLNNFYPREAKVQWKVDNALQSGNSQESVTEQDSKDSTYSLSSTLTLSKADYEKHKVYACEVTHQGLSSPVTKSFNRGEC
notes: as for B2
For the molecule B4, binding was put at a Kd of 24 µM.

B5: M103205H795-MY013/M103202L889-SK1 (antibody, human IgG1, kappa)
heavy: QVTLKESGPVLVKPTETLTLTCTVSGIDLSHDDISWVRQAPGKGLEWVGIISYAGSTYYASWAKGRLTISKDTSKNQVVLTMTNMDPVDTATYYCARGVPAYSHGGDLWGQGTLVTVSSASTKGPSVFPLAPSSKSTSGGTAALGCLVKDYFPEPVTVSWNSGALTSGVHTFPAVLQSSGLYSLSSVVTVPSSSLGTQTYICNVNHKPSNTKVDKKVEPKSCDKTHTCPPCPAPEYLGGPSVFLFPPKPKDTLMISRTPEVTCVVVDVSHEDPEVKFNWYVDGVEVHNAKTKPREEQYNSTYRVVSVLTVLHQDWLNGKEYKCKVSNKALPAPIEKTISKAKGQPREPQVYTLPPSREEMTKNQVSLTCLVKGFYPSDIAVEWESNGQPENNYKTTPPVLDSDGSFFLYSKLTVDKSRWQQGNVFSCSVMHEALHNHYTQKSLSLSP
light: DIVMTQSPATLSLSPGERATLSCTSSQSVYHANWLSWFQQKPGQPPKLLIYWASTLAYGVPSRFSGSGSGTDFTLTISSLQPEDAATYYCAGGYGGGRYAFGQGTKVEIKRTVAAPSVFIFPPSDEQLKSGTASVVCLLNNFYPREAKVQWKVDNALQSGNSQESVTEQDSKDSTYSLSSTLTLSKADYEKHKVYACEVTHQGLSSPVTKSFNRGEC
notes: as for B2
Regarding B5, the affinity, expressed as Kd, was 52 µM.

B6: M103205H795-MY016/M103202L889-SK1 (antibody, human IgG1, kappa)
heavy: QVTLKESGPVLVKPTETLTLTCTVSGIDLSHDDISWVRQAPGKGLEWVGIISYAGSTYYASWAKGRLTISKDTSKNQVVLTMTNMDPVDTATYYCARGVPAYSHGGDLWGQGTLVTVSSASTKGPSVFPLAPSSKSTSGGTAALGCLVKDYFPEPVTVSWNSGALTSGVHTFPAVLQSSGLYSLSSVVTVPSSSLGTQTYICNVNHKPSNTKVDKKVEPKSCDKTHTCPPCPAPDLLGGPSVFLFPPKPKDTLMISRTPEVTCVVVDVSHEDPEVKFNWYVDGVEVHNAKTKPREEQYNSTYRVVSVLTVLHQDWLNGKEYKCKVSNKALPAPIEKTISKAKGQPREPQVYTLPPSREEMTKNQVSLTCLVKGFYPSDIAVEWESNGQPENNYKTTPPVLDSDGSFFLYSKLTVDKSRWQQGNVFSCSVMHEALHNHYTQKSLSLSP
light: DIVMTQSPATLSLSPGERATLSCTSSQSVYHANWLSWFQQKPGQPPKLLIYWASTLAYGVPSRFSGSGSGTDFTLTISSLQPEDAATYYCAGGYGGGRYAFGQGTKVEIKRTVAAPSVFIFPPSDEQLKSGTASVVCLLNNFYPREAKVQWKVDNALQSGNSQESVTEQDSKDSTYSLSSTLTLSKADYEKHKVYACEVTHQGLSSPVTKSFNRGEC
notes: as for B2
Consider B6, for which the Kd stood at 3.2 µM.

B7: M103205H795-MY014/M103202L889-SK1 (antibody, human IgG1, kappa)
heavy: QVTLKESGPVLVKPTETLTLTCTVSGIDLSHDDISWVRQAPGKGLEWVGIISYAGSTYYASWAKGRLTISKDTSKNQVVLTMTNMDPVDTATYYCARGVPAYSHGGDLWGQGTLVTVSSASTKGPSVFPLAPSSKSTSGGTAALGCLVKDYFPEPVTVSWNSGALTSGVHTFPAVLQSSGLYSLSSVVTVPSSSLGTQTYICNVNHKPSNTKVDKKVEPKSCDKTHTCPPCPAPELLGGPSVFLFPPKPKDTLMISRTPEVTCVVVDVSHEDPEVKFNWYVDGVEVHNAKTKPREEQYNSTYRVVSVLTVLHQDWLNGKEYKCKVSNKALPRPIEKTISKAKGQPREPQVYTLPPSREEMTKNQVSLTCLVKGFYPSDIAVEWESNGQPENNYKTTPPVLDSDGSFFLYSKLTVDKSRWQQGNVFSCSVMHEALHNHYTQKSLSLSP
light: DIVMTQSPATLSLSPGERATLSCTSSQSVYHANWLSWFQQKPGQPPKLLIYWASTLAYGVPSRFSGSGSGTDFTLTISSLQPEDAATYYCAGGYGGGRYAFGQGTKVEIKRTVAAPSVFIFPPSDEQLKSGTASVVCLLNNFYPREAKVQWKVDNALQSGNSQESVTEQDSKDSTYSLSSTLTLSKADYEKHKVYACEVTHQGLSSPVTKSFNRGEC
notes: as for B2
B7 returned a Kd of 12 µM.

B8: M103205H795-MY038/M103202L889-SK1 (antibody, human IgG1, kappa)
heavy: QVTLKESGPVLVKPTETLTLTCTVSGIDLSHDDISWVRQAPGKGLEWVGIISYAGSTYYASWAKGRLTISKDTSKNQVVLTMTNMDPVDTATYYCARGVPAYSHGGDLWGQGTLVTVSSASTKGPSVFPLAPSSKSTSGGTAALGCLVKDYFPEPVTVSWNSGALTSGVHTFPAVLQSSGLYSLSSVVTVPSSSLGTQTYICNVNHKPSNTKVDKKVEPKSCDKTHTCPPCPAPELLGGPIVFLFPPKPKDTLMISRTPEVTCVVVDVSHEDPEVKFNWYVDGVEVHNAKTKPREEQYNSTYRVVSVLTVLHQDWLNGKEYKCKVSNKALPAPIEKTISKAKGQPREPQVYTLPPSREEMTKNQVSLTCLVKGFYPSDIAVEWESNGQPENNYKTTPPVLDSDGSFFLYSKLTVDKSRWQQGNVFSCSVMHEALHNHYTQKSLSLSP
light: DIVMTQSPATLSLSPGERATLSCTSSQSVYHANWLSWFQQKPGQPPKLLIYWASTLAYGVPSRFSGSGSGTDFTLTISSLQPEDAATYYCAGGYGGGRYAFGQGTKVEIKRTVAAPSVFIFPPSDEQLKSGTASVVCLLNNFYPREAKVQWKVDNALQSGNSQESVTEQDSKDSTYSLSSTLTLSKADYEKHKVYACEVTHQGLSSPVTKSFNRGEC
notes: as for B2
The molecule B8 came in with a Kd of 11 µM.

B9: M103205H795-MY010/M103202L889-SK1 (antibody, human IgG1, kappa)
heavy: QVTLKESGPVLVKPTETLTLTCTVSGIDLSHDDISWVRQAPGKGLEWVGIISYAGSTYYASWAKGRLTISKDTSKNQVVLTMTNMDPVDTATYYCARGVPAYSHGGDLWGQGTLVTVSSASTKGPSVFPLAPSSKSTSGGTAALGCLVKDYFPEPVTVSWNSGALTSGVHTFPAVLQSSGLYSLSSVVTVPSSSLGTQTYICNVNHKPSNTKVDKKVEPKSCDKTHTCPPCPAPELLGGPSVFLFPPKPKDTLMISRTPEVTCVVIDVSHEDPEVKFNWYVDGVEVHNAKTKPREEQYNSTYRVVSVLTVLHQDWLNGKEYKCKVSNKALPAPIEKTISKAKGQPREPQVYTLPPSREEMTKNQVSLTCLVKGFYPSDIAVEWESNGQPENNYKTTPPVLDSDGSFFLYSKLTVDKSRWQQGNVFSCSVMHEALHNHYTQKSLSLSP
light: DIVMTQSPATLSLSPGERATLSCTSSQSVYHANWLSWFQQKPGQPPKLLIYWASTLAYGVPSRFSGSGSGTDFTLTISSLQPEDAATYYCAGGYGGGRYAFGQGTKVEIKRTVAAPSVFIFPPSDEQLKSGTASVVCLLNNFYPREAKVQWKVDNALQSGNSQESVTEQDSKDSTYSLSSTLTLSKADYEKHKVYACEVTHQGLSSPVTKSFNRGEC
notes: as for B2
B9: the Kd is 18 µM.
